What was measured:
[1] = molecular target: TGF-β type II receptor (TβRII) on HEK-293 CAGA-Luc TGF-β reporter cells (UniProt P37173 23-567, limits assumed); assay: cell-based or functional assay
[2] = molecular target: T1, TGF-β type II receptor (TβRII) (UniProt P37173 38-159); assay: ITC, TβRII injected into the monomer, three replicates globally fit to a 1:1 model
T1 construct: A purified protein was injected in ITC and run on native gels; also called TbRII; transforming growth factor-β type II receptor
T1 sequence (P37173 38-159 limits assumed): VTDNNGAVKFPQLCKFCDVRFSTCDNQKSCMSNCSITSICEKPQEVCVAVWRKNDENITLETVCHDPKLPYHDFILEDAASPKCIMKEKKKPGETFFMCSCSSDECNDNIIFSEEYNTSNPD
Excerpt: (§1) FIG. 5: Binding of the engineered TGF-beta monomers (mmTGF-β2-7M, left; mmTGF-β2-7M2R, middle; and mmTGF-β2-2M-Del7-16, right) to the TGF-β type II receptor (TβRII) as detected by isothermal titration calorimetry (ITC). Upper panels depict the raw thermograms for three replicate titrations, while the lower panels depict the integrated heat (data points) for the three replicate titrations globally fit to a 1:1 binding isotherm (smooth line).
(§2) In order to evaluate the ability of the mmTGF-β2-7M variants described herein (mmTGF-β2-7M2R (SEQ ID NO: 4), mmTGF-β2-2M-Del7-16 (SEQ ID NO: 5), and mmTGF-β2-7M-PRDC (SEQ ID NO: 7)) to bind TβRII, isothermal titration calorimetry (ITC) and native gels were used. The ITC binding experiments were performed by injecting increasing amounts of TβRII into mmTGF-β2-7M2R (SEQ ID NO: 4) or mmTGF-β2-2M-Del7-16 (SEQ ID NO: 5), with mmTGF-β2-7M (SEQ ID NO: 3) used a reference control. These titrations yielded readily detectable isotherms with a large negative enthalpy and a near 1:1 binding stoichiometry (FIG. 5).

[3] = molecular target: T1, TGF-β type II receptor (TβRII); assay: ITC; TβRII injected into the monomer; three replicate titrations globally fit to a 1:1 binding isotherm
Excerpt: as §1, §2

Sequence of TGF-β type II receptor (TβRII) on HEK-293 CAGA-Luc TGF-β reporter cells (P37173 23-567 limits assumed): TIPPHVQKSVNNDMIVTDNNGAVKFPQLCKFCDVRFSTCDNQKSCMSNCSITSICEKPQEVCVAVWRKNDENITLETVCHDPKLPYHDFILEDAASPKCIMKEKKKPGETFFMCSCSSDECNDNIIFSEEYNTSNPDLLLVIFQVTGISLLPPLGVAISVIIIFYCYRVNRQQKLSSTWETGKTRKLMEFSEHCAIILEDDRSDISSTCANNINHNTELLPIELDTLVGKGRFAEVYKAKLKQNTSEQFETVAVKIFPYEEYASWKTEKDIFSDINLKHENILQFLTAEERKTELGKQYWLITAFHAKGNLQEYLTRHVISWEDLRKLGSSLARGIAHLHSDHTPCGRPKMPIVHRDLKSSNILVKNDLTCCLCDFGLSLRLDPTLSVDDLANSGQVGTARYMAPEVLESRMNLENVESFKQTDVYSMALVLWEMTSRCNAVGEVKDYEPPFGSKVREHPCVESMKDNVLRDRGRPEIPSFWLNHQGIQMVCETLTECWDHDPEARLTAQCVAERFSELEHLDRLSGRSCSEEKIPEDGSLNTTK

B1: mmTGF-β2-7M-PRDC (ligand)
chain: KEVLASSQEALVVTERKYLKSDWCKLRPLYIDFRKDLGWKWIHEPKGYNANFCYGQCNSFYIPRHVKKEEDSFQSSAFCVSQDLEPLTIVYYVGRKPKVEQLSNMIVKSCRCMSV
With B1 the “IC50, HEK-293 CAGA-Luc TGF-β reporter assay, stimulation with 10 pM TGF-β3” value (“IC50 … with 10 pM TGF-β3” below) [1] was 282 nM and the “fold change of IC50 relative to mmTGF-β2-7M, HEK-293 CAGA-Luc TGF-β reporter assay” value [1] was roughly 5 fold.

B2: mmTGF-β2-7M (ligand)
chain: ALDAAYCFRNVQDNCCLRPLYIDFRKDLGWKWIHEPKGYNANFCAGACPYRASKSPSCVSQDLEPLTIVYYVGRKPKVEQLSNMIVKSCKCS
notes: also called engineered human TGF-β2 monomer mmTGF-β2-7M; mmTGF-B27M
A Kd [2] of 60.5 nM, a ΔG [3] of -9.85 kcal/mol and a ΔH [3] of -4.63 kcal/mol were found for B2 in this work. For the same binder, the ΔS [3] was 17.5 cal/mol•K and the “IC50 … with 10 pM TGF-β3” value [1] was 58.2 nM.

B3: mmTGF-β2-2M-Del7-16 (ligand)
chain: ALDAAYVFRNVQDNCALRPLYIDFRRDLGWKWIHEPKGYNANFCAGACPYRASKSPSCVSQDLEPLTILYYIGRTPKIEQLSNMIVKSCKCS
A Kd [2] of 80.1 nM, a ΔG [3] of -10 kcal/mol and a ΔH [3] of -7.67 kcal/mol were found for B3 in this work. The “IC50 … with 10 pM TGF-β3” value [1] was 111 nM.

B4: mmTGF-β2-7M2R (ligand)
chain: ALDAAYCFRNVQDNCCLRPLYIDFRKDLGWKWIHEPKGYNANFCAGACPYRASKSPRCRSQDLEPLTIVYYVGRKPKVEQLSNMIVKSCKCS
A Kd [2] of 75.1 nM, a ΔG [3] of -10.1 kcal/mol and a ΔH [3] of -10.5 kcal/mol were found for B4 in this work. The ΔS [3] was -1.44 cal/mol•K and the “IC50 … with 10 pM TGF-β3” value [1] was 53.3 nM.
